Data from IntAct's records for PubMed 15205472.

B1: Prospero homeobox protein 1 (Homo sapiens), Q92786 (parent)
chain: MPDHDSTALLSRQTKRRRVDIGVKRTVGTASAFFAKARATFFSAMNPQGSEQDVEYSVVQHADGEKSNVLRKLLKRANSYEDAMMPFPGATIISQLLKNNMNKNGGTEPSFQASGLSSTGSEVHQEDICSNSSRDSPPECLSPFGRPTMSQFDMDRLCDEHLRAKRARVENIIRGMSHSPSVALRGNENEREMAPQSVSPRESYRENKRKQKLPQQQQQSFQQLVSARKEQKREERRQLKQQLEDMQKQLRQLQEKFYQIYDSTDSENDEDGNLSEDSMRSEILDARAQDSVGRSDNEMCELDPGQFIDRARALIREQEMAENKPKREGNNKERDHGPNSLQPEGKHLAETLKQELNTAMSQVVDTVVKVFSAKPSRQVPQVFPPLQIPQARFAVNGENHNFHTANQRLQCFGDVIIPNPLDTFGNVQMASSTDQTEALPLVVRKNSSDQSASGPAAGGHHQPLHQSPLSATTGFTTSTFRHPFPLPLMAYPFQSPLGAPSGSFSGKDRASPESLDLTRDTTSLRTKMSSHHLSHHPCSPAHPPSTAEGLSLSLIKSECGDLQDMSEISPYSGSAMQEGLSPNHLKKAKLMFFYTRYPSSNMLKTYFSDVKFNRCITSQLIKWFSNFREFYYIQMEKYARQAINDGVTSTEELSITRDCELYRALNMHYNKANDFEVPERFLEVAQITLREFFNAIIAGKDVDPSWKKAIYKVICKLDSEVPEIFKSPNCLQELLHE
B2: Nuclear receptor subfamily 5 group A member 2 (Homo sapiens), O00482-2 (parent)
chain: MSSNSDTGDLQESLKHGLTPIVSQFKMVNYSYDEDLEELCPVCGDKVSGYHYGLLTCESCKGFFKRTVQNNKRYTCIENQNCQIDKTQRKRCPYCRFQKCLSVGMKLEAVRADRMRGGRNKFGPMYKRDRALKQQKKALIRANGLKLEAMSQVIQAMPSDLTISSAIQNIHSASKGLPLNHAALPPTDYDRSPFVTSPISMTMPPHGSLQGYQTYGHFPSRAIKSEYPDPYTSSPESIMGYSYMDSYQTSSPASIPHLILELLKCEPDEPQVQAKIMAYLQQEQANRSKHEKLSTFGLMCKMADQTLFSIVEWARSSIFFRELKVDDQMKLLQNCWSELLILDHIYRQVVHGKEGSIFLVTGQQVDYSIIASQAGATLNNLMSHAQELVAKLRSLQFDQREFVCLKFLVLFSLDVKNLENFQLVEGVQEQVNAALLDYTMCNYPQQTEKFGQLLLRLPEIRAISMQAEEYLYYKHLNGDVPYNNLLIEMLHAKRA

Variants of: B1
Conditions: with NR5A2, O00482-2

effect of a mutation on the interaction	Variant
disrupting interaction	L70A;L73A

Variants of: B2
Conditions: with prox1_human PROX1, Q92786

effect of a mutation on the interaction	Variant
disrupting interaction	MSSNSDTGDLQESLKHGLTPIVSQFKMVNYSYDEDLEELCPVCGDKVSGYHYGLLTCESCKGFFKRTVQNNKRYTCIENQNCQIDKTQRKRCPYCRFQKCLSVGMKLEAVRADRMRGGRNKFGPMYKRDRALKQQKKALIRANGLKLEAMSQVIQAMPSDLTISSAIQNIHSASKGLPLNHAALPPTDYDRSPFVTSPISMTMPPHGSLQGYQTYGHFPSRAIKSEYPDPYTSSPESIMGYSYMDSYQTSSPASIPHLILELLKCEPDEPQVQAKIMAYLQQEQANRSKHEKLSTFGLMCKMADQTLFSIVEWARSSIFFRELKVDDQMKLLQNCWSELLILDHIYRQVVHGKEGSIFLVTGQQVDYSIIASQAGATLNNLMSHAQELVAKLRSLQFDQREFVCLKFLVLFSLDVKNLENFQLVEGVQEQVNAALLDYTMCNYPQQTEKFGQAALRLPEIRAISMQAEEYLYYKHLNGDVPYNNLLIEMLHAKRA [L453A;L454A]
decreasing interaction	MSSNSDTGDLQESLKHGLTPIVSQFKMVNYSYDEDLEELCPVCGDKVSGYHYGLLTCESCKGFFKRTVQNNKRYTCIENQNCQIDKTQRKRCPYCRFQKCLSVGMKLEAVRADRMRGGRNKFGPMYKRDRALKQQKKALIRANGLKLEAMSQVIQAMPSDLTISSAIQNIHSASKGLPLNHAALPPTDYDRSPFVTSPISMTMPPHGSLQGYQTYGHFPSRAIKSEYPDPYTSSPESIMGYSYMDSYQTSSPASIPHLILELLKCEPDEPQVQAKIMAYLQQEQANRSKHEKLSTFGLMCAMADATLASIVEWARSSIFFRELKVDDQMKLLQNCWSELLILDHIYRQVVHGKEGSIFLVTGQQVDYSIIASQAGATLNNLMSHAQELVAKLRSLQFDQREFVCLKFLVLFSLDVKNLENFQLVEGVQEQVNAALLDYTMCNYPQQTEKFGQLLLRLPEIRAISMQAEEYLYYKHLNGDVPYNNLLIEMLHAKRA [K301A;Q305A;F308A]
decreasing interaction	MSSNSDTGDLQESLKHGLTPIVSQFKMVNYSYDEDLEELCPVCGDKVSGYHYGLLTCESCKGFFKRTVQNNKRYTCIENQNCQIDKTQRKRCPYCRFQKCLSVGMKLEAVRADRMRGGRNKFGPMYKRDRALKQQKKALIRANGLKLEAMSQVIQAMPSDLTISSAIQNIHSASKGLPLNHAALPPTDYDRSPFVTSPISMTMPPHGSLQGYQTYGHFPSRAIKSEYPDPYTSSPESIMGYSYMDSYQTSSPASIPHLILELLKCEPDEPQVQAKIMAYLQQEQANRSKHEKLSTFGLMCKMADQTLFSIVEWARSSIFFRELKVAAQAKLLQNCWSELLILDHIYRQVVHGKEGSIFLVTGQQVDYSIIASQAGATLNNLMSHAQELVAKLRSLQFDQREFVCLKFLVLFSLDVKNLENFQLVEGVQEQVNAALLDYTMCNYPQQTEKFGQLLLRLPEIRAISMQAEEYLYYKHLNGDVPYNNLLIEMLHAKRA [D326A;D327A;M329A]
disrupting interaction	MSSNSDTGDLQESLKHGLTPIVSQFKMVNYSYDEDLEELCPVCGDKVSGYHYGLLTCESCKGFFKRTVQNNKRYTCIENQNCQIDKTQRKRCPYCRFQKCLSVGMKLEAVRADRMRGGRNKFGPMYKRDRALKQQKKALIRANGLKLEAMSQVIQAMPSDLTISSAIQNIHSASKGLPLNHAALPPTDYDRSPFVTSPISMTMPPHGSLQGYQTYGHFPSRAIKSEYPDPYTSSPESIMGYSYMDSYQTSSPASIPHLILELLKCEPDEPQVAAKIMAYLAAEQANRSKHEKLSTFGLMCKMADQTLFSIVEWARSSIFFRELKVDDQMKLLQNCWSELLILDHIYRQVVHGKEGSIFLVTGQQVDYSIIASQAGATLNNLMSHAQELVAKLRSLQFDQREFVCLKFLVLFSLDVKNLENFQLVEGVQEQVNAALLDYTMCNYPQQTEKFGQLLLRLPEIRAISMQAEEYLYYKHLNGDVPYNNLLIEMLHAKRA [Q273A;Q281A;Q282A]
